*1 amine or outer side, *2 acyl side, *3 side chain or, on linkers, in order; H or OH if unused. Bridges are numbered along the chain shown (N, C = ends). Where no end group is shown, it is not given here. [ ]: non-standard residue; d: D form. 1,3‑dibromopropan‑2‑one = linker (CAS 816-39-7) joining two Cys as 1,3-dithio-propan-2-one bridge -SCH2C(=O)CH2S-; 4‑(2-Aminoethyl)benzoyl = O=C(c1ccc(CCN[*:1])cc1)[*:2]; Bip = N[C@@H](Cc1ccc(-c2ccccc2)cc1)C(=O)O; 2Nal = N[C@@H](Cc1ccc2ccccc2c1)C(=O)O; AEF = NCCOc1ccc(C[C@H](N)C(=O)O)cc1; αMeR = C[C@](N)(CCCNC(=N)N)C(=O)O; αMeL = CC(C)C[C@](C)(N)C(=O)O; CH2COCH2 = O=C(C[*:1])C[*:2]; 3Amb = NCc1cccc(C(=O)O)c1; Dab = NCC[C@H](N)C(=O)O
T1: human IL-23R endogenously expressed on DB cells (CRL-2289) (human, UniProt Q5VWK5 24-629)
T1 sequence (looked up): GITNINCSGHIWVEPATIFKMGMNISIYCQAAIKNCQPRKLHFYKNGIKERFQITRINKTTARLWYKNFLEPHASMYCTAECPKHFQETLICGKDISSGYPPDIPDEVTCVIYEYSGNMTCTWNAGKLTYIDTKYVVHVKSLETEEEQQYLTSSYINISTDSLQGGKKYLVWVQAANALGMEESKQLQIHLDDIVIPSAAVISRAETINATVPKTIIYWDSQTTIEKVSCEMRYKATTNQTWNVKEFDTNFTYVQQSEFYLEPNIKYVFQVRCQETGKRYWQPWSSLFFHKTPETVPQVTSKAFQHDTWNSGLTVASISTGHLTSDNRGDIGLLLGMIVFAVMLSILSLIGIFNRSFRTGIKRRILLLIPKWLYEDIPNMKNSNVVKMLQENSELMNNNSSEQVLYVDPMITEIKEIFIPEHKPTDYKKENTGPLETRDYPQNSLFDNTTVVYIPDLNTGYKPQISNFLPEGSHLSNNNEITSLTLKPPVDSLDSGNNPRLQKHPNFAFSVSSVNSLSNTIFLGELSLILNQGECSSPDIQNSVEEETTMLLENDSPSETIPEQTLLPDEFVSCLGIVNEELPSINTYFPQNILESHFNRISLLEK


Each binder was assayed against T1, human IL-23R endogenously expressed on … (assay: cell-based or functional assay).

Binder	IC50 (pSTAT3)
[3‑(4-Aminophenyl)propanoyl]SCWQC[AEF][2Nal][αMeL]ER-NH2 (lactam N-10; linker 3-6 via CH2COCH2) [Compound 51]	68.1 nM
[3Amb]SCWQC[AEF][2Nal][αMeL]E[αMeR]-NH2 (lactam N-10; linker 3-6 via CH2COCH2; SMILES CC(C)C[C@]1(C)NC(=O)[C@H](Cc2ccc3ccccc3c2)NC(=O)[C@H](Cc2ccc(OCCN)cc2)NC(=O)[C@@H]2CSCC(=O)CSC[C@H](NC(=O)[C@H](CO)NC(=O)c3cccc(c3)CNC(=O)CC[C@@H](C(=O)N[C@@](C)(CCCNC(=N)N)C(N)=O)NC1=O)C(=O)N[C@@H](Cc1c[nH]c3ccccc13)C(=O)N[C@@H](CCC(N)=O)C(=O)N2) [Compound 42]	24.7 nM
H-DCSEWQKWWLCR-NH2 (linker 2-11 via 1,3‑dibromopropan‑2‑one; lactam 4-7) [Compound 5]	> 1 µM
[4‑(2-Aminoethyl)benzoyl]SCWQC[AEF][2Nal][αMeL]ER-NH2 (lactam N-10; linker 3-6 via CH2COCH2; SMILES CC(C)C[C@]1(C)NC(=O)[C@H](Cc2ccc3ccccc3c2)NC(=O)[C@H](Cc2ccc(OCCN)cc2)NC(=O)[C@@H]2CSCC(=O)CSC[C@H](NC(=O)[C@H](CO)NC(=O)c3ccc(cc3)CCNC(=O)CC[C@@H](C(=O)N[C@@H](CCCNC(=N)N)C(N)=O)NC1=O)C(=O)N[C@@H](Cc1c[nH]c3ccccc13)C(=O)N[C@@H](CCC(N)=O)C(=O)N2) [Compound 50]	51.1 nM
Ac-DESCAQCWWLKR-NH2 (lactam 2-11; linker 4-7 via 1,3‑dibromopropan‑2‑one) [Compound 13]	> 1 µM
Ac-DESCWQCAWLKR-NH2 (lactam 2-11; linker 4-7 via 1,3‑dibromopropan‑2‑one) [Compound 14]	> 1 µM
Ac-DESCWQCWALKR-NH2 (lactam 2-11; linker 4-7 via 1,3‑dibromopropan‑2‑one) [Compound 15]	> 1 µM
Ac-DCQCWQCYW[αMeL]CR-NH2 (linker 2-11, 4-7 via CH2COCH2) [Compound 63]	> 1 µM
XSCWQCWXLER (HELM PEPTIDE1{[bAla].S.C.W.Q.C.W.[O=C([C@H](Cc1ccc2ccccc2c1)N[*:1])[*:2]].L.E.R.[am]}|CHEM1{[O=C(C[*:1])C[*:2]]}$PEPTIDE1,PEPTIDE1,1:R1-10:R3|PEPTIDE1,CHEM1,3:R3-1:R1|PEPTIDE1,CHEM1,6:R3-1:R2$$$V2.0; SMILES CC(C)C[C@@H]1NC(=O)[C@H](Cc2ccc3ccccc3c2)NC(=O)[C@H](Cc2c[nH]c3ccccc23)NC(=O)[C@@H]2CSCC(=O)CSC[C@H](NC(=O)[C@H](CO)NC(=O)CCNC(=O)CC[C@@H](C(=O)N[C@@H](CCCNC(=N)N)C(N)=O)NC1=O)C(=O)N[C@@H](Cc1c[nH]c3ccccc13)C(=O)N[C@@H](CCC(N)=O)C(=O)N2) [Compound 36]	> 1 µM
Ac-DCQCWQC[2Nal]W[αMeL]CR-NH2 (linker 2-11, 4-7 via CH2COCH2) [Compound 62]	> 1 µM
[3Amb]SEWQ[Dab][AEF][2Nal][αMeL]ER-NH2 (lactam (positions not given here); lactam 3-6; not fully specified (bridges)) [Compound 67]	35.3 nM
Ac-KSC[Bip]QCW[2Nal]LER-NH2 (lactam 1-10; linker 3-6 via CH2COCH2; SMILES CC(=O)N[C@H]1CCCCNC(=O)CC[C@@H](C(=O)N[C@@H](CCCNC(=N)N)C(N)=O)NC(=O)[C@H](CC(C)C)NC(=O)[C@H](Cc2ccc3ccccc3c2)NC(=O)[C@H](Cc2c[nH]c3ccccc23)NC(=O)[C@@H]2CSCC(=O)CSC[C@H](NC(=O)[C@H](CO)NC1=O)C(=O)N[C@@H](Cc1ccc(-c3ccccc3)cc1)C(=O)N[C@@H](CCC(N)=O)C(=O)N2) [Compound 26]	> 1 µM
[3Amb]SCWQC[AEF][2Nal]LER-NH2 (lactam N-10; linker 3-6 via CH2COCH2; SMILES CC(C)C[C@@H]1NC(=O)[C@H](Cc2ccc3ccccc3c2)NC(=O)[C@H](Cc2ccc(OCCN)cc2)NC(=O)[C@@H]2CSCC(=O)CSC[C@H](NC(=O)[C@H](CO)NC(=O)c3cccc(c3)CNC(=O)CC[C@@H](C(=O)N[C@@H](CCCNC(=N)N)C(N)=O)NC1=O)C(=O)N[C@@H](Cc1c[nH]c3ccccc13)C(=O)N[C@@H](CCC(N)=O)C(=O)N2) [Compound 39]	19.6 nM
H-LCSCWQCWWLCR-NH2 (linker 2-11, 4-7 via CH2COCH2) [Compound 2]	755 nM
Ac-DEQCWQC[2Nal]W[αMeL]KR-NH2 (lactam 2-11; linker 4-7 via CH2COCH2; SMILES CC(=O)N[C@@H](CC(=O)O)C(=O)N[C@H]1CCC(=O)NCCCC[C@@H](C(=O)N[C@@H](CCCNC(=N)N)C(N)=O)NC(=O)[C@](C)(CC(C)C)NC(=O)[C@H](Cc2c[nH]c3ccccc23)NC(=O)[C@H](Cc2ccc3ccccc3c2)NC(=O)[C@@H]2CSCC(=O)CSC[C@H](NC(=O)[C@H](CCC(N)=O)NC1=O)C(=O)N[C@@H](Cc1c[nH]c3ccccc13)C(=O)N[C@@H](CCC(N)=O)C(=O)N2) [Compound 56]	> 1 µM
[3Amb]SCWQC[AEF][2Nal][αMeL]ER-NH2 (lactam N-10; linker 3-6 via CH2COCH2; SMILES CC(C)C[C@]1(C)NC(=O)[C@H](Cc2ccc3ccccc3c2)NC(=O)[C@H](Cc2ccc(OCCN)cc2)NC(=O)[C@@H]2CSCC(=O)CSC[C@H](NC(=O)[C@H](CO)NC(=O)c3cccc(c3)CNC(=O)CC[C@@H](C(=O)N[C@@H](CCCNC(=N)N)C(N)=O)NC1=O)C(=O)N[C@@H](Cc1c[nH]c3ccccc13)C(=O)N[C@@H](CCC(N)=O)C(=O)N2) [Compound 38]	19.3 nM
[3Amb]SCWQC[AEF][2Nal][αMeL]ES-NH2 (lactam N-10; linker 3-6 via CH2COCH2; SMILES CC(C)C[C@]1(C)NC(=O)[C@H](Cc2ccc3ccccc3c2)NC(=O)[C@H](Cc2ccc(OCCN)cc2)NC(=O)[C@@H]2CSCC(=O)CSC[C@H](NC(=O)[C@H](CO)NC(=O)c3cccc(c3)CNC(=O)CC[C@@H](C(=O)N[C@@H](CO)C(N)=O)NC1=O)C(=O)N[C@@H](Cc1c[nH]c3ccccc13)C(=O)N[C@@H](CCC(N)=O)C(=O)N2) [Compound 44]	82.3 nM
[(4-Aminomethyl)benzoyl]SCWQC[AEF][2Nal][αMeL]ER-NH2 (lactam N-10; linker 3-6 via CH2COCH2) [Compound 49]	20.3 nM

Source: patent US20250154198A1, “PEPTIDE INHIBITORS OF INTERLEUKIN-23 RECEPTOR” (Zealand Pharma A/S, priority 2021, published 2025)
